# Results from the supplement of paper PMC9112550, “Optimization of the antimicrobial peptide Bac7 by deep mutational scanning” (BMC Biology, 2022).
# Tested on: Escherichia coli TOP10
# Test: shrunken log2 fold change of peptide-encoding DNA abundance (4.5 h post-induction vs induction); higher = less antimicrobial activity (less host growth inhibition)
# Conditions: time post-induction: 4.5 h; library: site-saturation at positions 5, 18, 19, 20
# 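Further: peptides expressed intracellularly from a pBAD plasmid library in pooled LB shake-flask culture, induced with 0.3% L-arabinose, DNA abundance read by NGS, three biological replicates, DESeq2 with apeglm shrinkage.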
row,Sequence,shrunken log2 fold change
1,RRIRTRPPRLPRPRPRPDQAPRP,-0.0986
2,RRIRARPPRLPRPRPRPIIGPRP,-0.065
3,RRIRKRPPRLPRPRPRPWPRPRP,0.264
4,RRIRLRPPRLPRPRPRPMWWPRP,1.19
5,RRIRLRPPRLPRPRPRPGHDPRP,0.147
6,RRIRRRPPRLPRPRPRPKEVPRP,0.195
7,RRIRSRPPRLPRPRPRPNSVPRP,-0.509
8,RRIRKRPPRLPRPRPRPHHQPRP,0.00598
9,RRIRARPPRLPRPRPRPWCEPRP,0.404
10,RRIRPRPPRLPRPRPRPCLLPRP,-0.258
11,RRIRQRPPRLPRPRPRPTKWPRP,0.25
12,RRIRTRPPRLPRPRPRPKRVPRP,-0.0636
13,RRIRLRPPRLPRPRPRPEFQPRP,-0.0134
14,RRIRARPPRLPRPRPRPVGMPRP,0.376
15,RRIRYRPPRLPRPRPRPMEAPRP,-0.163
16,RRIRVRPPRLPRPRPRPLYIPRP,-0.555
17,RRIRTRPPRLPRPRPRPAHYPRP,-0.227
18,RRIRGRPPRLPRPRPRPLRFPRP,0.917
19,RRIRERPPRLPRPRPRPYQTPRP,-0.135
20,RRIRARPPRLPRPRPRPARQPRP,0.766
21,RRIRYRPPRLPRPRPRPCLMPRP,-0.225
22,RRIRKRPPRLPRPRPRPSSTPRP,-0.151

row,Sequence,shrunken log2 fold change
1,RRIRPRPPRLPRPRPRPWACPRP,-0.00713
2,RRIRGRPPRLPRPRPRPPSKPRP,0.58
3,RRIRKRPPRLPRPRPRPEYGPRP,0.087
4,RRIRGRPPRLPRPRPRPKHTPRP,0.743
5,RRIRARPPRLPRPRPRPMQDPRP,0.188
6,RRIRCRPPRLPRPRPRPVRCPRP,-0.00859
7,RRIRARPPRLPRPRPRPVEQPRP,0.446
8,RRIRFRPPRLPRPRPRPPMAPRP,0.277
9,RRIRERPPRLPRPRPRPENWPRP,-0.0337
10,RRIRFRPPRLPRPRPRPQKKPRP,-0.0897
11,RRIRLRPPRLPRPRPRPQSEPRP,-0.0331
12,RRIRGRPPRLPRPRPRPRVKPRP,0.856
13,RRIRQRPPRLPRPRPRPPFSPRP,-0.0357
14,RRIRPRPPRLPRPRPRPLKIPRP,-0.169
15,RRIRARPPRLPRPRPRPTRCPRP,1.1
16,RRIRRRPPRLPRPRPRPKVVPRP,0.0343
17,RRIRMRPPRLPRPRPRPRAPPRP,1.18
18,RRIRWRPPRLPRPRPRPMEKPRP,0.0685
19,RRIRLRPPRLPRPRPRPQITPRP,-0.294
20,RRIRERPPRLPRPRPRPGVMPRP,0.0523
21,RRIRMRPPRLPRPRPRPIYNPRP,-0.347
22,RRIRYRPPRLPRPRPRPQYWPRP,-0.696

row,Sequence,shrunken log2 fold change
1,RRIRNRPPRLPRPRPRPMYAPRP,-0.192
2,RRIRQRPPRLPRPRPRPYVKPRP,-0.365
3,RRIRFRPPRLPRPRPRPALYPRP,-0.155
4,RRIRHRPPRLPRPRPRPSYMPRP,-0.00144
5,RRIRSRPPRLPRPRPRPKDCPRP,0.456
6,RRIRFRPPRLPRPRPRPTIRPRP,-0.41
7,RRIRRRPPRLPRPRPRPYCFPRP,-0.37
8,RRIRWRPPRLPRPRPRPFHWPRP,0.175
9,RRIRARPPRLPRPRPRPDYCPRP,-0.17
10,RRIRKRPPRLPRPRPRPGWSPRP,3
11,RRIRLRPPRLPRPRPRPYCQPRP,-0.797
12,RRIRFRPPRLPRPRPRPYITPRP,-0.906
13,RRIRNRPPRLPRPRPRPTGHPRP,0.0742
14,RRIRERPPRLPRPRPRPQRGPRP,-0.0773
15,RRIRSRPPRLPRPRPRPVDMPRP,0.0294
16,RRIRSRPPRLPRPRPRPATGPRP,0.156
17,RRIRTRPPRLPRPRPRPFDHPRP,-0.301
18,RRIRPRPPRLPRPRPRPANWPRP,0.22
19,RRIRHRPPRLPRPRPRPVQGPRP,0.207
20,RRIRWRPPRLPRPRPRPAHVPRP,-0.0191
21,RRIRVRPPRLPRPRPRPCRIPRP,-0.385
22,RRIRPRPPRLPRPRPRPTVKPRP,-0.00591

row,Sequence,shrunken log2 fold change
1,RRIRMRPPRLPRPRPRPAPVPRP,0.764
2,RRIRWRPPRLPRPRPRPMIKPRP,-0.353
3,RRIRHRPPRLPRPRPRPAWIPRP,-0.0987
4,RRIRLRPPRLPRPRPRPWRVPRP,0.488
5,RRIRDRPPRLPRPRPRPSWWPRP,0.276
6,RRIRQRPPRLPRPRPRPKLYPRP,-0.0149
7,RRIRSRPPRLPRPRPRPIQLPRP,-0.238
8,RRIRARPPRLPRPRPRPGICPRP,0.182
9,RRIRNRPPRLPRPRPRPQAGPRP,-0.128
10,RRIRWRPPRLPRPRPRPACDPRP,0.788
11,RRIRTRPPRLPRPRPRPIGQPRP,-0.0623
12,RRIRFRPPRLPRPRPRPCSSPRP,0.0898
13,RRIRPRPPRLPRPRPRPLPTPRP,0.42
14,RRIRMRPPRLPRPRPRPITVPRP,0.0226
15,RRIRCRPPRLPRPRPRPYIWPRP,-0.0216
16,RRIRERPPRLPRPRPRPKDKPRP,-0.15
17,RRIRHRPPRLPRPRPRPMCCPRP,0.101
18,RRIRNRPPRLPRPRPRPAKAPRP,0.113
19,RRIRRRPPRLPRPRPRPIFNPRP,-0.124
20,RRIRLRPPRLPRPRPRPFMMPRP,-0.449
21,RRIRMRPPRLPRPRPRPQPHPRP,0.46
22,RRIRWRPPRLPRPRPRPEDVPRP,0.0895

row,Sequence,shrunken log2 fold change
1,RRIRRRPPRLPRPRPRPIETPRP,-0.00874
2,RRIRNRPPRLPRPRPRPNNEPRP,-0.208
3,RRIRKRPPRLPRPRPRPHLGPRP,-0.00957
4,RRIRCRPPRLPRPRPRPEDWPRP,0.595
5,RRIRVRPPRLPRPRPRPMVWPRP,0.117
6,RRIRGRPPRLPRPRPRPCSAPRP,1.58
7,RRIRYRPPRLPRPRPRPAFTPRP,-0.639
8,RRIRFRPPRLPRPRPRPAPRPRP,0.84
9,RRIRNRPPRLPRPRPRPVGGPRP,0.279
10,RRIRWRPPRLPRPRPRPPGIPRP,0.41
11,RRIRSRPPRLPRPRPRPCEMPRP,0.0253
12,RRIRCRPPRLPRPRPRPGRGPRP,1.18
13,RRIRYRPPRLPRPRPRPMRKPRP,-0.00197
14,RRIRRRPPRLPRPRPRPSHYPRP,-0.131
15,RRIRHRPPRLPRPRPRPDMIPRP,-0.0018
16,RRIRARPPRLPRPRPRPILEPRP,-0.0126
17,RRIRSRPPRLPRPRPRPLFTPRP,-0.0175
18,RRIRCRPPRLPRPRPRPHIKPRP,-0.788
19,RRIRHRPPRLPRPRPRPSFMPRP,-0.699
20,RRIRQRPPRLPRPRPRPLKPPRP,0.0722
21,RRIRYRPPRLPRPRPRPYPWPRP,0.0116
